Where a chain is given by its changes, count along the chain named. Names and notes keep the numbering of the source.
B1: G236S (antibody, human IgG1, kappa)
heavy: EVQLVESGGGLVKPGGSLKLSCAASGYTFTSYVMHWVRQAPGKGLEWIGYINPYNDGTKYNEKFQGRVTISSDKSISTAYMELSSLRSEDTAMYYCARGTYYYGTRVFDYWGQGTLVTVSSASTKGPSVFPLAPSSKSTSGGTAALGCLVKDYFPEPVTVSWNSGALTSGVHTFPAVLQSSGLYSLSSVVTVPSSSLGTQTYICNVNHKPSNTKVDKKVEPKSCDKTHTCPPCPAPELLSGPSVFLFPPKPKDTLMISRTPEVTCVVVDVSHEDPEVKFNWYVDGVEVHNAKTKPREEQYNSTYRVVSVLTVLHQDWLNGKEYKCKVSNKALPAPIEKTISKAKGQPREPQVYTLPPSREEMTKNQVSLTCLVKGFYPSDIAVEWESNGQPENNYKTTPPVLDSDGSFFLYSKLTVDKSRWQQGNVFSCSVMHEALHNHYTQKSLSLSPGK
light: DIVMTQSPATLSLSPGERATLSCRSSKSLQNVNGNTYLYWFQQKPGQSPQLLIYRMSNLNSGVPDRFSGSGSGTEFTLTISSLEPEDFAVYYCMQHLEYPITFGAGTKLEIKRTVAAPSVFIFPPSDEQLKSGTASVVCLLNNFYPREAKVQWKVDNALQSGNSQESVTEQDSKDSTYSLSSTLTLSKADYEKHKVYACEVTHQGLSSPVTKSFNRGEC
notes: HuAM4G7 anti-CD19 IgG1 (m1) with this Fc substitution, EU index; copies: 2 + 2
B2: S267E/L328Q (antibody, human IgG1, kappa)
heavy: not shown
light: B1 light
notes: HuAM4G7 anti-CD19 IgG1 (m1) with these Fc substitutions, EU index; copies: 2 + 2
B3: S267D/H268D (antibody, human IgG1, kappa)
heavy: not shown
light: B1 light
notes: as for B2
B4: S239D/S267D (antibody, human IgG1, kappa)
heavy: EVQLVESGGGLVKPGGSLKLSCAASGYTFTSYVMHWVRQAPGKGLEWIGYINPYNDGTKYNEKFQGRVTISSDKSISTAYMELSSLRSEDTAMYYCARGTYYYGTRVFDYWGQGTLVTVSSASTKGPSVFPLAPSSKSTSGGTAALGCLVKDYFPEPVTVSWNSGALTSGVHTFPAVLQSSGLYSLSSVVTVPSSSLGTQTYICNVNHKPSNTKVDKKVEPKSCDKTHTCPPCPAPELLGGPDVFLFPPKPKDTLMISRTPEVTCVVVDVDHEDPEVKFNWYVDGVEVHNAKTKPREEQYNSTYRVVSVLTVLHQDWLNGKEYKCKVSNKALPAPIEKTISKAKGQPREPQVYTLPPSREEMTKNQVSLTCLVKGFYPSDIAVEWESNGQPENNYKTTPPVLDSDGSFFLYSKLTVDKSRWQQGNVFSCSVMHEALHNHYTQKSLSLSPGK
light: B1 light
notes: as for B2
B5: S239Q (antibody, human IgG1, kappa)
heavy: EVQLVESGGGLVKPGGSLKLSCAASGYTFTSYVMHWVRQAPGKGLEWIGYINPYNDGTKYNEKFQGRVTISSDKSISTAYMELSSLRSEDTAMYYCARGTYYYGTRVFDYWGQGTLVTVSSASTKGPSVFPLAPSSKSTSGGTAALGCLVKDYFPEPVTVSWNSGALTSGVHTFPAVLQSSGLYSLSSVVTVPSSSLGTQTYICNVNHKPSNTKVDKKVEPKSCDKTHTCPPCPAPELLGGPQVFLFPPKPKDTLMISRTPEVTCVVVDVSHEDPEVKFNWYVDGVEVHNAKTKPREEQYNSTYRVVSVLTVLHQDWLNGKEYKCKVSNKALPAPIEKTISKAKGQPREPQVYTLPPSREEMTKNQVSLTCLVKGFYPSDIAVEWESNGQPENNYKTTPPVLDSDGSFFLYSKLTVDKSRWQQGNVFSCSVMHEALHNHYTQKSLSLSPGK
light: B1 light
notes: as for B1
B6: S239N (antibody, human IgG1, kappa)
heavy: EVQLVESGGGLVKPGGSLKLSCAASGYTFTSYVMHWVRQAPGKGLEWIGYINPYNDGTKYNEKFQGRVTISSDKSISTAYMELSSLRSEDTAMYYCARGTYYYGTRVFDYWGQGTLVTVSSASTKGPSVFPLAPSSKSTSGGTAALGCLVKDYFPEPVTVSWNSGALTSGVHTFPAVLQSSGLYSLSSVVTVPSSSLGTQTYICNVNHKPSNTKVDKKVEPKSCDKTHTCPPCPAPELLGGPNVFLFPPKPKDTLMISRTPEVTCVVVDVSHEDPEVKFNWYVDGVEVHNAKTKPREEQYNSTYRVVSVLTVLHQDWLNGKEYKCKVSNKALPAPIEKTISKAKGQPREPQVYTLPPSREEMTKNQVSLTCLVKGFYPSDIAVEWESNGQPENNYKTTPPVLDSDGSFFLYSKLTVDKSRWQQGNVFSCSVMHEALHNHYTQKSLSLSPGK
light: B1 light
notes: as for B1
B7: S267E/H268E/L328F (antibody, human IgG1, kappa)
heavy: EVQLVESGGGLVKPGGSLKLSCAASGYTFTSYVMHWVRQAPGKGLEWIGYINPYNDGTKYNEKFQGRVTISSDKSISTAYMELSSLRSEDTAMYYCARGTYYYGTRVFDYWGQGTLVTVSSASTKGPSVFPLAPSSKSTSGGTAALGCLVKDYFPEPVTVSWNSGALTSGVHTFPAVLQSSGLYSLSSVVTVPSSSLGTQTYICNVNHKPSNTKVDKKVEPKSCDKTHTCPPCPAPELLGGPSVFLFPPKPKDTLMISRTPEVTCVVVDVEEEDPEVKFNWYVDGVEVHNAKTKPREEQYNSTYRVVSVLTVLHQDWLNGKEYKCKVSNKAFPAPIEKTISKAKGQPREPQVYTLPPSREEMTKNQVSLTCLVKGFYPSDIAVEWESNGQPENNYKTTPPVLDSDGSFFLYSKLTVDKSRWQQGNVFSCSVMHEALHNHYTQKSLSLSPGK
light: B1 light
notes: as for B2
B8: H268D/A327D (antibody, human IgG1, kappa)
heavy: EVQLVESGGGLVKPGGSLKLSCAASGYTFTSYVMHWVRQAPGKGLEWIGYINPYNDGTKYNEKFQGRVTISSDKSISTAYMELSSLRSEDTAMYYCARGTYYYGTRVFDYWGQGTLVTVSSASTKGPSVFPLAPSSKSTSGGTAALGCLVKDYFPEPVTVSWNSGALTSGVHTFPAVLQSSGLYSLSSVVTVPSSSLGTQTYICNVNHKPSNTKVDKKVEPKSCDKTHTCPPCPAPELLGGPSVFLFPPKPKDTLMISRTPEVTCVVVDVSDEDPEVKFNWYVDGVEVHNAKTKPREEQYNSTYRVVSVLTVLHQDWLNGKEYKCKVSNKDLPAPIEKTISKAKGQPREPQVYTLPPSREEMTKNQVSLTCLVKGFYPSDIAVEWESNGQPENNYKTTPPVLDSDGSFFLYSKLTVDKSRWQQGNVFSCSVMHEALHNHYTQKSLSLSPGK
light: B1 light
notes: as for B2
B9: D265E (antibody, human IgG1, kappa)
heavy: not shown
light: B1 light
notes: as for B1
B10: H268N (antibody, human IgG1, kappa)
heavy: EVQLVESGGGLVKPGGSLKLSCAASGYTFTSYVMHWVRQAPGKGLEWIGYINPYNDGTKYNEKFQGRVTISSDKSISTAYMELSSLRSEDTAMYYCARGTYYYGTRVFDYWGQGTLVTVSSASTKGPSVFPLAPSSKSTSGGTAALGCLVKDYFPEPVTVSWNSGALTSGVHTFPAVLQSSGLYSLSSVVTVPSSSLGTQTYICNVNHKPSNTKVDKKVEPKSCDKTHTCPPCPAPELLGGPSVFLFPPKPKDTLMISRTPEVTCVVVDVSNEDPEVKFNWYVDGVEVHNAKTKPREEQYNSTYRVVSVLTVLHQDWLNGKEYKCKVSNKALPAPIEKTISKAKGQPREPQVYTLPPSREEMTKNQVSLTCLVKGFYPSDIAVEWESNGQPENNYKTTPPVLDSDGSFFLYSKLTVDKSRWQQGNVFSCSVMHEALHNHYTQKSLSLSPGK
light: B1 light
notes: as for B1
B11: S239D/S267E/L328F (antibody, human IgG1, kappa)
heavy: B7 heavy with S243D, E272H
light: B1 light
notes: as for B2
B12: S267E/A327D (antibody, human IgG1, kappa)
heavy: not shown
light: B1 light
notes: as for B2
B13: A327G (antibody, human IgG1, kappa)
heavy: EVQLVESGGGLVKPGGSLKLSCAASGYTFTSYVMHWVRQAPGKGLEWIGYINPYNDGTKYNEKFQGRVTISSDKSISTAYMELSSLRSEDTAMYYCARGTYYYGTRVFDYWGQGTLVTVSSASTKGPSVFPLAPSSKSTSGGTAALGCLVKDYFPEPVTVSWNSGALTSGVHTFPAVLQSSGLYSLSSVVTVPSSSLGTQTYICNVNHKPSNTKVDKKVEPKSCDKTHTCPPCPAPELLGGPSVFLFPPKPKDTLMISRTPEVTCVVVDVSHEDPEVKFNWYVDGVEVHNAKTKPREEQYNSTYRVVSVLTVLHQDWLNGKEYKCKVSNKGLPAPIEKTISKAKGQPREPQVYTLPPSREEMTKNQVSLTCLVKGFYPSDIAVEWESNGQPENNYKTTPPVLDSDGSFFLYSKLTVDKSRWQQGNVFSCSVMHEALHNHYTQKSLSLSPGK
light: B1 light
notes: as for B1
B14: H268Q (antibody, human IgG1, kappa)
heavy: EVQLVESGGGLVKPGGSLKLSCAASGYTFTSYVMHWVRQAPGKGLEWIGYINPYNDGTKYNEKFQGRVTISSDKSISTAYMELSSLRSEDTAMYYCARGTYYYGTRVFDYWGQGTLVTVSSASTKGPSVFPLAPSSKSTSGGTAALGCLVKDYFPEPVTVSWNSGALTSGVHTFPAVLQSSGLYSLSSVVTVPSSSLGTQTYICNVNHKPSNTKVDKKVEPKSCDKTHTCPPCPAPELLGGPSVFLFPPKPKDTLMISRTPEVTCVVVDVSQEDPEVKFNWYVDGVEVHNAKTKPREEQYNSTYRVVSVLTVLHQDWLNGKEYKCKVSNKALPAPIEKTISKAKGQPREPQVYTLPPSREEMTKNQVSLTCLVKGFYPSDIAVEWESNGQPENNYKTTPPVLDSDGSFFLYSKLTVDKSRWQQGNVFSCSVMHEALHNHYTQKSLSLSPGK
light: B1 light
notes: as for B1
B15: S239D/H268D (antibody, human IgG1, kappa)
heavy: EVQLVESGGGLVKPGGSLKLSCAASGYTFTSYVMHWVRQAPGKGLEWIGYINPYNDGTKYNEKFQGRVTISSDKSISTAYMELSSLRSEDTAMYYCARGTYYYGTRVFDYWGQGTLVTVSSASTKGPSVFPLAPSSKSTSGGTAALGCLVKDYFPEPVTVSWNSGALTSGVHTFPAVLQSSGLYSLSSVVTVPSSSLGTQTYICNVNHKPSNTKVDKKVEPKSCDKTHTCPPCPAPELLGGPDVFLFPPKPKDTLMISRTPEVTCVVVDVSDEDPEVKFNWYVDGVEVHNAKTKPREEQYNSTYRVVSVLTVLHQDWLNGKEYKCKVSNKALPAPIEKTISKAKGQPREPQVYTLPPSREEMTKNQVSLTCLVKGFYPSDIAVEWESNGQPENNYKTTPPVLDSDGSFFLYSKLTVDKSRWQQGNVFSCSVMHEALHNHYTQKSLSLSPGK
light: B1 light
notes: as for B2
B16: L235D/S239D (antibody, human IgG1, kappa)
heavy: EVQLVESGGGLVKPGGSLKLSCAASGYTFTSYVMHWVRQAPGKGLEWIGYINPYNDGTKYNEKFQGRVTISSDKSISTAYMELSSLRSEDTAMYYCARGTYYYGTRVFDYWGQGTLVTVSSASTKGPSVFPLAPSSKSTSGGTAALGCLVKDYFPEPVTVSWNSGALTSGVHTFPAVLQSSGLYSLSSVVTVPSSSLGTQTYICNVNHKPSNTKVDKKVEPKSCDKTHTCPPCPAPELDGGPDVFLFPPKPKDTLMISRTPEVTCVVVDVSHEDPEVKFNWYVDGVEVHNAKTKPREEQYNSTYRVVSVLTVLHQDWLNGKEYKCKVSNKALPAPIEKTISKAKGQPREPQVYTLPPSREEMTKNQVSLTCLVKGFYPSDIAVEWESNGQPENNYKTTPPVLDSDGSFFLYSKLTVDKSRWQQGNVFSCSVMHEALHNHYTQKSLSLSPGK
light: B1 light
notes: as for B2

Each binder was assayed against T1, cynoFcγRIIb (Macaca fascicularis, UniProt A0A140HDP4) (assay: SPR).
T1 construct: extracellular region, C-terminal His- and GST-tag; also called cynomolgus monkey FcγRIIb
T1 sequence (receptor extracellular region): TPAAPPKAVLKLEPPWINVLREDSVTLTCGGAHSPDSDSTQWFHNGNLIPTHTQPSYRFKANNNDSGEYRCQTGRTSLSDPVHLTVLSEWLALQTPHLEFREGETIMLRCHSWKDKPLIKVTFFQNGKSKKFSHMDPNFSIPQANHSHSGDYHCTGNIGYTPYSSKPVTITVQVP

| Binder | Fold vs WT IgG1 (Kd) [fold] | Fold vs WT IgG1 (off-rate) [fold] |
| --- | --- | --- |
| B1 | 3.55 |  |
| B2 |  | 0.367 |
| B3 | 1.86 | 1.96 |
| B4 | 1.79 |  |
| B5 |  | 0.401 |
| B6 |  | 0.66 |
| B7 | 3.51 |  |
| B8 | 1.47 | 1.8 |
| B9 |  | 0.648 |
| B10 |  | 1.34 |
| B11 | 4.58 |  |
| B12 |  | 0.697 |
| B13 |  | 0.903 |
| B14 |  | 0.864 |

Molecular target: T2, mFcγRIV
T2 construct: also called mouse FcγRIV; not shown: C-terminal His and GST tags (named only on our card)
T2 chain: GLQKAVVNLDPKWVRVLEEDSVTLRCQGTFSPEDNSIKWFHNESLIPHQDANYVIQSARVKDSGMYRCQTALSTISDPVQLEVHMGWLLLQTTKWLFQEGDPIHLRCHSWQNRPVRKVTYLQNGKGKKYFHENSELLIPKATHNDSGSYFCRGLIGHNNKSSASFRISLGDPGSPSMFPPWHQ
Assay: SPR

| Binder | Fold vs WT IgG1 (off-rate) [fold] | Fold vs WT IgG1 (Kd) [fold] |
| --- | --- | --- |
| B2 | 0.454 |  |
| B3 |  | 0.598 |
| B15 | 2.21 | 1.06 |
| B4 | 1.88 | 1 |
| B5 | 0.711 |  |
| B6 | 1.07 |  |
| B16 | 1.57 |  |
| B8 |  | 0.443 |
| B9 | 0.526 |  |
| B10 | 1.02 |  |
| B13 | 1.23 |  |
| B14 | 1.08 |  |

The binders below were run against T3, cynoFcγRIIIa (Macaca fascicularis, UniProt Q8SPW2) (assay: SPR).
T3 construct: extracellular region, C-terminal His- and GST-tag; also called cynomolgus monkey FcγRIIIa
T3 sequence (Q8SPW2 17-208): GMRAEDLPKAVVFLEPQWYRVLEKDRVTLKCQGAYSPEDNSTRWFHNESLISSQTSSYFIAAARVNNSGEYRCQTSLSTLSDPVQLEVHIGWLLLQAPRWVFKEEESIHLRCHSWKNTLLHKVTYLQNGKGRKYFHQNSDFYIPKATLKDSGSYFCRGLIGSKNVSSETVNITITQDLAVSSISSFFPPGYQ

| Binder | Fold vs WT IgG1 (Kd) [fold] | Fold vs WT IgG1 (off-rate) [fold] |
| --- | --- | --- |
| B1 | 1.45 |  |
| B2 |  | 0.124 |
| B3 | 5.33 |  |
| B15 | 8.68 | 3.62 |
| B4 | 7.66 | 2.73 |
| B5 |  | 0.622 |
| B6 |  | 1.15 |
| B7 | 1.04 |  |
| B16 |  | 1.41 |
| B8 | 1.73 |  |
| B9 |  | 0.636 |
| B10 |  | 0.99 |
| B11 | 1.17 |  |
| B13 |  | 0.443 |
| B14 |  | 0.983 |

What follows are binders tested against T4, mFcγRIIb (Mus musculus, UniProt P08101) (assay: SPR).
T4 construct: extracellular region, C-terminal His- and GST-tag; also called mouse FcγRII
T4 sequence (receptor extracellular region, looked up): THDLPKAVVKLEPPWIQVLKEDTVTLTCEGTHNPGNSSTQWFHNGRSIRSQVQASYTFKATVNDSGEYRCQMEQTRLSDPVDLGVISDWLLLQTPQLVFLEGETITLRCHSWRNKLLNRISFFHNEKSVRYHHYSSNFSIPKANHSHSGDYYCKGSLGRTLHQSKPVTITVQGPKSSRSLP

| Binder | Fold vs WT IgG1 (off-rate) [fold] | Fold vs WT IgG1 (Kd) [fold] |
| --- | --- | --- |
| B2 | 0.881 |  |
| B3 | 0.968 | 0.902 |
| B4 |  | 1.98 |
| B5 | 1.74 |  |
| B6 | 0.61 |  |
| B8 | 5.09 | 3.22 |
| B9 | 0.833 |  |
| B10 | 1.6 |  |
| B12 | 0.971 |  |
| B13 | 1.45 |  |
| B14 | 0.877 |  |

What follows are binders tested against T5, human FcγRI receptor protein (R&D Systems) (human, UniProt P12314 16-288) (assay: SPR).
T5 construct: also called soluble FcγRI; solFcγRI

| Binder | Fold vs WT IgG1 [fold] | Kd [nM] |
| --- | --- | --- |
| B1 | 0.0268 | 12.3 |
| B7 | 0.991 | 0.333 |
| B11 | 1.45 | 0.227 |
| B12 | 1.66 | 0.198 |

These binders were tested against T6, human FcγRIIa (131H), His- and GST-tagged (human, UniProt P12318 34-217) (assay: SPR).
T6 construct: also called H131 FcγRIIa; HIIa; not shown: 6xHis and GST tags of the pTT5 vector
T6 sequence (looked up): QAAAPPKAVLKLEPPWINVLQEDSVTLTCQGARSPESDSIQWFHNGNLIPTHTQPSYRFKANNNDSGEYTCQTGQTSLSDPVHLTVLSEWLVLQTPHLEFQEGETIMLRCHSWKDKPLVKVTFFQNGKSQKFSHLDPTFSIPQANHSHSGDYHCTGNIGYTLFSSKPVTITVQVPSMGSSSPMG

| Binder | Fold vs WT IgG1 [fold] | Kd [nM] |
| --- | --- | --- |
| B1 | 3.76 | 172 |
| B7 | 0.826 | 783 |
| B11 | 1.71 | 378 |

These binders were tested against T7, human FcγRIIa (131R), His- and GST-tagged (human, UniProt P12318 34-217) (assay: SPR).
T7 construct: Expressed in HEK293T cells, purified by nickel chromatography; also called R131 FcγRIIa; not shown: 6xHis and GST tags of the pTT5 vector
T7 sequence (looked up): T6 sequence (looked up) with H134R

| Binder | Fold vs WT IgG1 [fold] | Kd [nM] |
| --- | --- | --- |
| B1 | 2.33 | 369 |
| B5 | 0.853 | 1010 |
| B6 | 0.867 | 990 |
| B7 | 253 | 3.4 |
| B9 | 0.307 | 2790 |
| B10 | 1.79 | 481 |
| B11 | 416 | 2.06 |
| B12 | 16.7 | 51.3 |
| B13 | 0.319 | 2690 |
| B14 | 1.58 | 544 |

Each binder was assayed against T8, human FcγRIIb receptor protein (R&D Systems) (human, UniProt P31994 46-217) (assay: SPR).
T8 construct: Bought protein injected over captured antibody in Biacore; also called CD32b
T8 sequence (looked up): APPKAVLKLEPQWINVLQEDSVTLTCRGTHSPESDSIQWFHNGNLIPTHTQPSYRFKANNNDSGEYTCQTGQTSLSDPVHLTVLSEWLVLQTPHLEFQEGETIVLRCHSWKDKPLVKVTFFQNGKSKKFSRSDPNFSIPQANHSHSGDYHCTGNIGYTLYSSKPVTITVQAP

| Binder | Fold vs WT IgG1 [fold] | Kd [nM] | binding result |
| --- | --- | --- | --- |
| B1 | 1.02 | 1440 |  |
| B2 | 12.1 | 121 |  |
| B3 | 14.2 | 103 |  |
| B15 | 14.4 | 102 |  |
| B4 | 22.3 | 65.9 |  |
| B5 | 0.729 | 2010 |  |
| B6 | 1.45 | 1010 |  |
| B7 | 344 | 4.26 |  |
| B16 | 4.11 | 357 |  |
| B8 | 7.68 | 191 |  |
| B9 | 0.417 | 3520 |  |
| B10 | 1.17 | 1250 |  |
| B11 | 428 | 3.43 |  |
| B12 | 21.2 | 69.1 |  |
| B13 | 0.353 | 4160 |  |
| B14 |  |  | no binding |

Each binder was assayed against T9, human FcγRIIIa (158V), His- and GST-tagged (human, UniProt P08637 17-208) (assay: SPR).
T9 construct: also called V158 FcγRIIIa; VIIIa; not shown: 6xHis and GST tags of the pTT5 vector
T9 sequence (P08637 17-208 F176V): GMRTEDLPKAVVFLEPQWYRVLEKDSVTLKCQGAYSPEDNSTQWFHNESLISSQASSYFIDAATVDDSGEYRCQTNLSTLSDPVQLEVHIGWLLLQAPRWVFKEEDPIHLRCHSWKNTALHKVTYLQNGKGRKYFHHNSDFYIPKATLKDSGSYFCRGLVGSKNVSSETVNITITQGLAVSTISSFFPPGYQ

| Binder | Fold vs WT IgG1 [fold] | Kd [µM] |
| --- | --- | --- |
| B1 | 0.00367 | 52.2 |
| B7 | 0.092 | 2.08 |
| B11 | 0.216 | 0.887 |
| B12 | 0.00199 | 96.3 |
